Experimental findings from patent US20040006782A1 are described below.

This experiment deals with nicotinic acetylcholine receptor containing the alpha6 subunit (mouse, native in brain of wild type animals) (mouse), Q9R0W9.
Sequence of nicotinic acetylcholine receptor containing the alpha6 subunit (mouse, native in brain of wild type animals) (mouse), Q9R0W9 (Q9R0W9 31-494, chain 1 of 2): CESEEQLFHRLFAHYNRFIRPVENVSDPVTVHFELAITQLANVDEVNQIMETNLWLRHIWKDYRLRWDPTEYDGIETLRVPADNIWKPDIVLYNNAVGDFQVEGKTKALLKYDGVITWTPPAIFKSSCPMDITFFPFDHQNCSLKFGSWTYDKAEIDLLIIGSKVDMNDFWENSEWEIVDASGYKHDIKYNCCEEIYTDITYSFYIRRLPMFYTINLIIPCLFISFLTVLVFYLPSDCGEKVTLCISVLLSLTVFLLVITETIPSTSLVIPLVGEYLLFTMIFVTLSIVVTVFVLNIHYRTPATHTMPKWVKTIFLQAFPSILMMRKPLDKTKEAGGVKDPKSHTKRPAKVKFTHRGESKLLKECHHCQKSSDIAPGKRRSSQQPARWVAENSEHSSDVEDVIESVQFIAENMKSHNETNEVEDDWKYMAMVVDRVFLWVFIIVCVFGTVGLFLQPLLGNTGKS
Sequence of nicotinic acetylcholine receptor containing the alpha6 subunit (mouse, native in brain of wild type animals) (mouse), Q9R0W9 (Q9ERK7 26-501, chain 2 of 2, further chain): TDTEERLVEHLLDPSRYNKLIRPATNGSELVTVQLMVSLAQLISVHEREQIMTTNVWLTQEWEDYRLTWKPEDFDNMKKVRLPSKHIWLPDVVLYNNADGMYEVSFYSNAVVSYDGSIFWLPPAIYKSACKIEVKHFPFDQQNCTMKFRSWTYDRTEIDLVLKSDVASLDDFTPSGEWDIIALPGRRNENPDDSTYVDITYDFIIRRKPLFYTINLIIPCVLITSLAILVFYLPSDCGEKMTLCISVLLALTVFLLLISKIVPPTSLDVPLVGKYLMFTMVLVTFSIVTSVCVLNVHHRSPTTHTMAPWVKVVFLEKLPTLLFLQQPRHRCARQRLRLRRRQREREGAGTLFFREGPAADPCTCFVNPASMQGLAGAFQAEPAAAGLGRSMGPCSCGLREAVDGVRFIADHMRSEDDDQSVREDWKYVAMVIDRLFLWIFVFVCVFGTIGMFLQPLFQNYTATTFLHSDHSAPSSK

B1: α-conotoxin MII, P56636 49-64 (peptide)
peptide: GCCSNPVCHLEHSNLC
modifications: not checked
On to B1, for which the share of epibatidine binding sites sensitive to αCtxMII amounted to 20%.
